One test addresses MEK1 (h) (human) (UniProt Q02750). Description: cell-based or functional assay.
For another test, the target named is human ERK2 (human) (UniProt P28482). Description: cell-based or functional assay.

Ends that are not written are not given here.

Chain of human ERK2 (human) (P28482 whole entry): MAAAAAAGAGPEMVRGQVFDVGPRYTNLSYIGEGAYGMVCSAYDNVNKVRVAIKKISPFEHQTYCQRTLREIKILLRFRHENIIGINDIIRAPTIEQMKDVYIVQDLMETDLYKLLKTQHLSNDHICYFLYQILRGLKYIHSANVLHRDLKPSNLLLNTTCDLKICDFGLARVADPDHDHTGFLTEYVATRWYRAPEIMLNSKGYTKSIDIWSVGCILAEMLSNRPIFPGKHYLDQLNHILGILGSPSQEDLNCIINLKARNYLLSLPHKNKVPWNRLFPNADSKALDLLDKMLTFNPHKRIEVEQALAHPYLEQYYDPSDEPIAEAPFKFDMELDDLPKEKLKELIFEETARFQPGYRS

For the molecule RSRARNPLYR (peptide, part only, also: 10 copies on 10-mer dendrimer framework) [peptide dendrimer Dend 10β5 presenting 10 monomer units of the β5 integrin derived peptide …], the values for the % inhibition of kinase activity, cell-free assay, dendrimer at 20 µM in the test with MEK1 (h) (human) and in the test with human ERK2 (human) were 92 % inhibition and 96 % inhibition, respectively.

These data come from patent publication US20120277161A1, “INHIBITION OF MULTIPLE CELL ACTIVATION PATHWAYS” (INTER-K PTY LIMITED, priority 2009, published 2012).
